# According to patent publication US8367368B2, “D-serine dehydratase and use thereof” (National University Corporation Nagoya University, priority 2006, dated 2013):
# “Also recorded” adds a separate entry of the source.
# T1: novel D-serine dehydratase (Saccharomyces cerevisiae, UniProt P53095)
# T1 construct: made in house; host or cells: Escherichia coli BL21 (DE3)
# T1 sequence (P53095 1-428): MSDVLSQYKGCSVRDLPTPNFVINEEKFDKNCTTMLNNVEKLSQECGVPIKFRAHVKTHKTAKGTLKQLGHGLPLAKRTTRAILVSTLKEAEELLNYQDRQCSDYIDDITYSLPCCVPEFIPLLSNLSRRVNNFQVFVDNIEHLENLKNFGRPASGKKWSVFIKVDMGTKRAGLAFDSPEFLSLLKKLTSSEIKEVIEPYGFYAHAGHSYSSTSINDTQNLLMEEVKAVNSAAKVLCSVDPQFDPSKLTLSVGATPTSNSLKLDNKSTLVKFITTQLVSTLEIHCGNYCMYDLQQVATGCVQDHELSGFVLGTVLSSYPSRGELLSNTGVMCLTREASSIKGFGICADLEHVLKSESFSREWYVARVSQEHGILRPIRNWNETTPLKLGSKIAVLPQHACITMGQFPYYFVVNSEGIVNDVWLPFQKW
# B1: novel D-serine dehydratase: protein of Saccharomyces cerevisiae, YGL196W (SEQ ID NO: 1), with D-serine dehydratase activity; recombinant, His-tagged, expressed in Escherichia coli (protein, listed as Saccharomyces cerevisiae)
# chain: T1 sequence (P53095 1-428)
# modifications: His tag
# notes: recombinant, His-tagged, expressed in Escherichia coli
# Key:
# Type in all cases: biochemical
# [1] = target: T1, novel D-serine dehydratase; test: Influence of metal ion and EDTA on enzymatic activity, Nessler method
# Experimental: (§1) To a reaction solution (final volume: 200 μl) containing 50 mM of HEPES-NaOH buffer (pH 8.0), […] of pyridoxal-5′-phosphate and 10 mM of D-serine, an appropriate amount of D-serine dehydratase was added and incubated at 30° C. Thereafter, trichloroacetic acid (final concentration: 5%) was added to stop the reaction. Ammonia in the centrifuged supernatant was quantified by using a Nessler reagent.
# The influence and effect of metal ion on the activity of the novel enzyme were examined by the following method. The compounds shown in FIG. 5 were incubated with untreated novel enzyme and 2 mM EDTA, and then dialyzed with Tris buffer solution. The D-serine dehydratase activity of the novel enzyme was measured by a Nessler method in the presence of 0.05 mM or 0.5 mM of any of KCl, NaCl, MnCl2, MgCl2, CaCl2, NiSO4, CuSO4 and ZnCl2.
# [2] = D-serine dehydratase activity of the purified enzyme, Nessler method; conditions: 10 mM D-serine, HEPES-NaOH pH 8.0, 30° C.
# Experimental: as §1, with “The activity of serine dehydratase was measured as follows: ammonia as a reaction product was measured by a Nessler method or pyruvic acid as a reaction product was measured by coupling with lactate dehydrogenase and by oxidation of NADH. Hereinafter, outline of each method is shown. To” for “To”
# [3] = Substrate-specificity by the Nessler method, D-threonine as substrate; conditions: same conditions as D-serine
# Experimental: (§2) To a reaction solution (final volume: 200 μl) containing 50 mM of HEPES-NaOH buffer (pH 8.0), […] of pyridoxal-5′-phosphate and 10 mM of D-serine, an appropriate amount of D-serine dehydratase was added and incubated at 30° C. Thereafter, trichloroacetic acid (final concentration: 5%) was added to stop the reaction. Ammonia in the centrifuged supernatant was quantified by using a Nessler reagent. The substrate-specificity of the novel enzyme was examined by the following method. That is to say, as the substrate, L-serine and D-threonine in addition to D-serine were prepared, and the reactivity of the enzyme with respect to each substrate was examined by the Nessler method. Note here that the reactivity of the enzyme with respect to L-serine or D-threonine was examined by the Nessler method in the same conditions as in the case of D-Serine except that L-serine (Wako Pure Chemical Industries, Ltd.) or D-threonine (Wako Pure Chemical Industries, Ltd.) was used as a substrate.
# [4] = Dynamic characteristic (reciprocal plot of rate against D-serine concentration), Nessler method; conditions: substrate D-serine
# Experimental: as §1
# The dynamic characteristic of the novel enzyme was examined by the following method. In the Nessler method, the concentration of D-serine was changed and the D-serine dehydratase activity of the novel enzyme in the respective concentrations of D-serine was measured. The inverse number of the obtained rate was plotted to the inverse number of the D-serine concentration. Then, the maximum rate was calculated from the inverse number of the y section and Km value was calculated from the inverse number of the x section.
# [5] = Effect of pH on enzymatic activity, Nessler method; conditions: MOPS, MES, HEPES, Tris buffers
# Experimental: as §1
# The relationship between the activity of the novel enzyme and pH at the reaction was examined by the following method. In the Nessler method, buffer solution was changed to MOPS (pH 6.5-8.0), MES (pH 6.0-6.5), HEPES (pH 7.0-8.5), and Tris (pH 7.5-9.0), respectively. By using the reaction solution, the D-serine dehydratase activity of the novel enzyme was measured.
# [6] = Substrate-specificity by the Nessler method, L-serine as substrate; conditions: same conditions as D-serine
# Experimental: as §2
molecule,measurement,setting,value
O=C(O)CN(CCN(CC(=O)O)CC(=O)O)CC(=O)O [EDTA],effect of EDTA on enzymatic activity,"[1]; incubated with 2 mM EDTA, then dialyzed with Tris buffer",mostly deactivated; also recorded: inhibited
"[Cl-].[Cl-].[Zn+2] [zinc, ZnCl2]",effect of zinc on enzymatic activity,"[1]; addition of zinc to EDTA-treated enzyme, low concentration",activated
same,zinc concentration at which the enzymatic activity was increased most,[1]; same experiment while changing the zinc concentration,0.005 mM
B1,specific activity,[2],3.7 gmol/min/mg
same,reactivity to D-threonine when the reactivity to D-serine was 100%,[3],5%
same,reactivity with respect to D-threonine,[3],extremely low
same,reactivity with respect to D-threonine,[3]; listed as novel enzyme,low reaction
same,maximum rate,[4]; Example text,4.2 µmol/min/mg
same,Vmax value,[4]; FIG. 7 legend,4.2 µmol/min/mg
same,Km,[4]; read-out: Km value with respect to D-serine,460 µM
same,optimum pH,[5],around 8
same,reactivity with respect to L-serine,[6],does not react with L-serine at all
same,reactivity with respect to L-serine,[6]; listed as novel enzyme,no reactivity
